Measurements as given in article PMC6675082.

Molecular target: NpDps4 (Dps4 from Nostoc punctiforme ATCC 29133) (Nostoc punctiforme ATCC 29133)
Experiment: crystal structure; sitting-drop vapour diffusion, 25% SOKALAN HP 66, 0.1 M HEPES pH 7.0, 0.2 M NaOAc, room temperature; metal-free, Fe2+-soaked and Zn2+-soaked crystals; four molecules in the asymmetric unit, a third of the dodecameric hollow sphere

NpDps4 (Dps4 from Nostoc punctiforme ATCC 29133) (natural protein)
stoichiometry N: 12
